Measured values taken from the supplement of paper PMC9170038.

System: MS2 coat protein
Experiment: apparent KD of MS2 coat protein; designed switch direction (-1 OFF switch, 1 ON switch): -1; higher = weaker reporter binding
Method in brief: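 The apparent KD reported per design is the median over clusters of curve fits to normalised cluster fluorescence. The RNA switches were transcribed on Illumina chips by stalled E. coli RNA polymerase. SNAP-549-labelled MS2 coat protein was titrated from 0.7 or 1.5 nM, doubling up to 3 µM, in Tris-HCl pH 7.5 buffer containing KCl, MgCl2, BSA, DTT, tRNA and Tween-20, with no input, 200 uM small-molecule ligand, or an oligonucleotide input.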

[1] = Eterna round: R95, input ligand: microRNA oligo, concentration not stated
[2] = input ligand: microRNA oligo, concentration not stated
[3] = Eterna round: R95, input ligand: FMN 200 uM
[4] = Eterna round: R95, input ligand: none

In the case of “UAAUAGUGAGGAUAUACAGAAUCUGGGUCCCGCGUGUUGAGACAUGAGGAUCACCCAUGUAGAAGGCACAAAAU [Tetiage] (puzzle: Exclusion 2)”, the “apparent KD of MS2 coat protein” value [1] is reported as 112 nM.
For “UAAUGUAUAUAGGAUAUCUAGCUGGAAACAGCUAGAGAAGGAUGUACAUGAGGAUCACCCAUGUAAAUCUCAAU [Ex6/12-B1] (Eterna round: R97, puzzle: Exclusion 6)”, the “apparent KD of MS2 coat protein” value (input ligand: FMN 200 uM) was 27.4 nM and the “apparent KD of MS2 coat protein” value (input ligand: none) was 19.1 nM.
With “UAAUUAAAUGUAGGAUAUCUGCACGUGUAGUGCAGAGAAGGACAUGAGGAUCACCCAUGUAGAUCAAAUUAAAUUAAUUUAAUU [ENG1/5-D3] (Eterna round: R96, puzzle: Exclusion NG 1)” the “apparent KD of MS2 coat protein” value (input ligand: FMN 200 uM) was 54 nM, the “apparent KD of MS2 coat protein” value [2] was 21.5 nM and the “apparent KD of MS2 coat protein” value (input ligand: none) was 23.7 nM.
For “UAAUUAAGUGUGAGGAUAUGCUGGUCCUUGGAUCAGCAGAAGGCACAUGAGGAUCACCCAUGUAAUAUAUAUAU [Mat - Exclusion 4 - JL Mod - D53] (puzzle: Brourd's mod of Exclusion 4)”, the “apparent KD of MS2 coat protein” value [3] was 361 nM, the “apparent KD of MS2 coat protein” value [1] was 108 nM and the “apparent KD of MS2 coat protein” value [4] was 104 nM.
In the case of “UAAUUAAUAAGAUCAAUUAAUUAACAUGAGGAUCACCCAUGUGAGGAUAUCAGCUCGUUUAGAGCUGAGAAGGCACAAUAAUUA [ExNG3/17-C2] (Eterna round: R96, puzzle: Exclusion NG 3)”, the “apparent KD of MS2 coat protein” value (input ligand: FMN 200 uM) is reported as 72 nM, the “apparent KD of MS2 coat protein” value [2] is reported as 41.6 nM and the “apparent KD of MS2 coat protein” value (input ligand: none) is reported as 46.8 nM.
For “UAAUUAAUUAAUUAAUAAUACAUGAGGAUCACCCAUGUAGAUCCUACAUACAAUUUAAGUAGCUCGUCUUAUAAUUA [Stov1/1-A1] (Eterna round: R97, puzzle: Sensor, turn-off variant 1)”, the “apparent KD of MS2 coat protein” value (input ligand: FMN 200 uM) was 206 nM and the “apparent KD of MS2 coat protein” value (input ligand: none) was 264 nM.
“UAAUUACAUGAGGAUCACCCAUGUGAGGAUAUGUCCAUAUUCGGCAAAUCGGAUAUGGACAGAAGGCACACCGG [JR_Exclusion1_Sub009] (puzzle: Exclusion 1)” was tested, and the “apparent KD of MS2 coat protein” value [1] was 55.8 nM.
In the case of “UACACUGCAUGAGGAUCAAACAUGAGGAUCACCCAUGUGUAGCAAGCUUUUUGCUCGUCUUAUAAAUAUGUAGUGUA [Electric Eye 10 - Jieux - Sensor, turn-off variant 1] (Eterna round: R97, puzzle: Sensor, turn-off variant 1)”, the “apparent KD of MS2 coat protein” value (input ligand: FMN 200 uM) is reported as 13.4 nM and the “apparent KD of MS2 coat protein” value (input ligand: none) is reported as 12.9 nM.
With “UACAUGAGGAUCACCCAUGUUUUGUCGUGUAUGGUAUUUAUCUAGGAUAUCAAGUUAAUUAUUUAUGAGAAGGAGAAUAUUAAU [JMF's solution 28] (Eterna round: R96, puzzle: Exclusion NG 3)” the “apparent KD of MS2 coat protein” value (input ligand: FMN 200 uM) was 37 nM, the “apparent KD of MS2 coat protein” value [2] was 31.7 nM and the “apparent KD of MS2 coat protein” value (input ligand: none) was 39 nM.
With “UACAUGAGGAUCACCCAUGUUUUGUCGUGUAUGGUAUUUAUCUAGGAUAUCAAGUUACUUAUUUAUGAGAAGGAGAAUAUUAAU [JMF's solution 30] (Eterna round: R96, puzzle: Exclusion NG 3)” the “apparent KD of MS2 coat protein” value (input ligand: FMN 200 uM) was 39.2 nM, the “apparent KD of MS2 coat protein” value [2] was 21.2 nM and the “apparent KD of MS2 coat protein” value (input ligand: none) was 25.2 nM.
With “UACAUGAGGAUCACCCAUGUUUUGUCGUGUAUGGUAUUUAUCUAGGAUAUCAAUCAAUUUAUUUAUGAGAAGGAGAAUAUUAAU [JMF's solution 49] (Eterna round: R96, puzzle: Exclusion NG 3)” the “apparent KD of MS2 coat protein” value (input ligand: FMN 200 uM) was 37.8 nM, the “apparent KD of MS2 coat protein” value [2] was 26 nM and the “apparent KD of MS2 coat protein” value (input ligand: none) was 33.8 nM.
“UACAUGAGGAUCACCCAUGUUUUGUCGUGUAUGGUAUUUAUCUAGGAUAUCAAUGUAUUUAGUUAUGAGAAGGAGAAUAUUAAU [JMF's solution 46] (Eterna round: R96, puzzle: Exclusion NG 3)” was tested, and the “apparent KD of MS2 coat protein” value (input ligand: FMN 200 uM) was 38.1 nM, the “apparent KD of MS2 coat protein” value [2] was 32 nM and the “apparent KD of MS2 coat protein” value (input ligand: none) was 35.3 nM.
With “UACAUGAGGAUCACCCAUGUUUUGUCGUGUAUGGUAUUUAUCUAGGAUAUCAAUUUAUUUAUUUAUGAGAAGGAGAAUAUUAAU [JMF's solution 5] (Eterna round: R96, puzzle: Exclusion NG 3)” the “apparent KD of MS2 coat protein” value (input ligand: FMN 200 uM) was 36.3 nM, the “apparent KD of MS2 coat protein” value [2] was 28.1 nM and the “apparent KD of MS2 coat protein” value (input ligand: none) was 41.2 nM.
“UACAUGAGGAUCACCCAUGUUUUGUCGUGUAUGGUAUUUAUCUAGGAUAUCGUGUUAUUUAACCACGAGAAGGAGAGUAUCAAU [MOD3 Solution 21 by JMF] (Eterna round: R96, puzzle: Exclusion NG 3)” was tested, and the “apparent KD of MS2 coat protein” value [2] was 21.5 nM.
With “UACCAGGUUCAGGAUAUGCCCUCGAAGAGAGGCGCAGAAGGGAACACAUGAGGAUCACCCAUGUCAGCCGCUUC [Eternabot (Original) Solution 45] (Eterna round: R97, puzzle: Exclusion 6)” the “apparent KD of MS2 coat protein” value (input ligand: FMN 200 uM) was 26.6 nM and the “apparent KD of MS2 coat protein” value (input ligand: none) was 17.1 nM.
For “UACGAGUUAGGAUAUGCAUUGGGCUCGCUUUCCUUCGAUAAACUUGAGGAUCACCCAAGUAGAAGGAACUUGUA [Mod 35 - Jieux - Exclusion 2] (Eterna round: R97, puzzle: Exclusion 2)”, the “apparent KD of MS2 coat protein” value (input ligand: FMN 200 uM) was 42.3 nM and the “apparent KD of MS2 coat protein” value (input ligand: none) was 16.4 nM.
For “UACUUCUGAGGAUAUACAUGAGGAUCACCCAUGUUGAUACCGACCUAAAGUCCAUUACGUAGAAGGCAGCAGUG [Eternabot (L1) Solution 91] (Eterna round: R97, puzzle: Exclusion 3)”, the “apparent KD of MS2 coat protein” value (input ligand: FMN 200 uM) was 35.4 nM and the “apparent KD of MS2 coat protein” value (input ligand: none) was 23.6 nM.
With “UAGAAGUUCAACGAGUGAGACAUGAGGAUCACCCAUGUGGUGGUAGGGAACAAGCUUUUUGCACGUACUUAUGAGGA [JR_SV3TOV1_Sub005] (puzzle: Sensor v3, turn-off variant 1)” the “apparent KD of MS2 coat protein” value [3] was 368 nM, the “apparent KD of MS2 coat protein” value [1] was 269 nM and the “apparent KD of MS2 coat protein” value [4] was 414 nM.
“UAGCAGCGAGGAUAUACAGACGGGUCCAGUACGUGUCUUGGACUUGAGGAUCACCCAAGUAGAAGGCGCCACAG [salish99_ex2_r4_604] (Eterna round: R97, puzzle: Exclusion 2)” was tested, and the “apparent KD of MS2 coat protein” value (input ligand: FMN 200 uM) was 41.3 nM and the “apparent KD of MS2 coat protein” value (input ligand: none) was 40 nM.
With “UAGCAUUGCCAAAGGUAGUGCAUUACAUGAGGAUCACCCAUGUAGGAUAUGGUAGGCUUUGCUUACCAGAAGGACAUGAUAAUU [Mat - Exclusion NG 3 - Mod of JL - D15] (Eterna round: R96, puzzle: Exclusion NG 3)” the “apparent KD of MS2 coat protein” value (input ligand: FMN 200 uM) was 112 nM, the “apparent KD of MS2 coat protein” value [2] was 29.6 nM and the “apparent KD of MS2 coat protein” value (input ligand: none) was 43.1 nM.
“UAGCGACCAUACAUGAGGAUCACCCAUGUGAAUGCCCACCGCGAGGAUAUCGAGUCCACUCGGGCCGAGAAGGCGCGACCUCAA [Eternabot solution 43] (Eterna round: R96, puzzle: Exclusion NG 3)” was tested, and the “apparent KD of MS2 coat protein” value (input ligand: FMN 200 uM) was 34.8 nM, the “apparent KD of MS2 coat protein” value [2] was 16.1 nM and the “apparent KD of MS2 coat protein” value (input ligand: none) was 35.5 nM.
For “UAGUGAGCGUGAGGAAUAUACAUGAGGAUCACCCAUGUUUGCUAAUAUAUUGCUCGUCUUAUAACAACAAUUAACUG [Mod-hoo-honey#abc] (Eterna round: R97, puzzle: Sensor, turn-off variant 1)”, the “apparent KD of MS2 coat protein” value (input ligand: FMN 200 uM) was 27.5 nM and the “apparent KD of MS2 coat protein” value (input ligand: none) was 20.9 nM.
“UAGUGGCAAGGAUAUACAGUGGAGAGGAUUGCAAGAGGUGGACAUGAGGAUCACCCAUGUAGAAGGUGCAGAGA [JR_Exclu2_Sub023] (puzzle: Exclusion 2)” was tested, and the “apparent KD of MS2 coat protein” value [1] was 203 nM.
“UAGUUACAUGAGGAUCACCCAUGUGAGGAUAUGAGUCAGUCACGGUGACGUGGCUGACUCAGAAGGCACAAUGG [Mat - Exclusion 1 - JL Mod - D45] (Eterna round: R97, puzzle: Exclusion 1)” was tested, and the “apparent KD of MS2 coat protein” value (input ligand: FMN 200 uM) was 77.4 nM and the “apparent KD of MS2 coat protein” value (input ligand: none) was 256 nM.
For “UAUAAGCUAGGAUAUACUGGCACACAACUCAUAAAUCCACGACAUGAGGAUCACCCAUGUAGAAGGAGCAAAUA [EX2 A.27] (Eterna round: R97, puzzle: Exclusion 2)”, the “apparent KD of MS2 coat protein” value (input ligand: FMN 200 uM) was 18.8 nM and the “apparent KD of MS2 coat protein” value (input ligand: none) was 14.4 nM.
With “UAUAUAUAGUAAGGAUAUGUAAUUAAUUUAUAAACAGAAGGUACUGACAUGAGGAUCACCCAUGUUUUAGUGUGGGCAUGUAGA [JMF's solution 35] (Eterna round: R96, puzzle: Exclusion NG 1)” the “apparent KD of MS2 coat protein” value [2] was 71.6 nM.
With “UAUAUAUAGUAAGGAUAUGUAAUUAUUUAAUAAACAGAAGGUACUGACAUGAGGAUCACCCAUGUUUUAGUGUGGGCAUGUAGA [JMF's solution 41] (Eterna round: R96, puzzle: Exclusion NG 1)” the “apparent KD of MS2 coat protein” value [2] was 69.4 nM.
For “UAUAUAUAGUAAGGAUAUGUAUAUAUUUGAUAAACAGAAGGUACUGACAUGAGGAUCACCCAUGUUUUAGUGUGGGCAUGUAGA [JMF's solution 64] (Eterna round: R96, puzzle: Exclusion NG 1)”, the “apparent KD of MS2 coat protein” value [2] was 48.4 nM.
For “UAUAUAUAGUAAGGAUAUGUAUUAAGUUUAUAAACAGAAGGUACUGACAUGAGGAUCACCCAUGUUUUAGUGUGGGCAUGUAGA [JMF's solution 76] (Eterna round: R96, puzzle: Exclusion NG 1)”, the “apparent KD of MS2 coat protein” value (input ligand: FMN 200 uM) was 122 nM, the “apparent KD of MS2 coat protein” value [2] was 52.6 nM and the “apparent KD of MS2 coat protein” value (input ligand: none) was 78.6 nM.
For “UAUAUAUAGUAAGGAUAUGUAUUAAUCUUAUAAACAGAAGGUACUGACAUGAGGAUCACCCAUGUUUUAGUGUGGGCAUGUAGA [JMF's solution 79] (Eterna round: R96, puzzle: Exclusion NG 1)”, the “apparent KD of MS2 coat protein” value [2] was 54.8 nM.
With “UAUAUAUAGUAAGGAUAUGUAUUAAUUCUAUAAACAGAAGGUACUGACAUGAGGAUCACCCAUGUUUUAGUGUGGGCAUGUAGA [JMF's solution 82] (Eterna round: R96, puzzle: Exclusion NG 1)” the “apparent KD of MS2 coat protein” value [2] was 41.3 nM.
In the case of “UAUAUAUAGUAAGGAUAUGUAUUAAUUUCAUAAACAGAAGGUACUGACAUGAGGAUCACCCAUGUUUUAGUGUGGGCAUGUAGA [JMF's solution 85] (Eterna round: R96, puzzle: Exclusion NG 1)”, the “apparent KD of MS2 coat protein” value (input ligand: FMN 200 uM) is reported as 88.2 nM, the “apparent KD of MS2 coat protein” value [2] is reported as 54.2 nM and the “apparent KD of MS2 coat protein” value (input ligand: none) is reported as 81.2 nM.
For “UAUAUAUAGUAAGGAUAUGUAUUAAUUUUGUAAACAGAAGGUACUGACAUGAGGAUCACCCAUGUUUUAGUGUGGGCAUGUAGA [JMF's solution 87] (Eterna round: R96, puzzle: Exclusion NG 1)”, the “apparent KD of MS2 coat protein” value [2] was 111 nM.
